Data reported in patent US20120121533, “NUCLEIC ACID LIGANDS TO LL37” (BIOTEX, INC., published 2012).

Target: T1, LL37 (human cathelicidin peptide LL-37) (Homo sapiens, UniProt P49913 P49913:134-170)
T1 chain: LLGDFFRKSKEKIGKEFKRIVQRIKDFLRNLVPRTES
Assay: SPR; biotinylated aptamer immobilised, increasing LL37 added; nonsense DNA on reference channel
Details: label: biotin (immobilised on neutravidin SPR chip)
Method: Aptamers were immobilized to the test channel of a neutravidin-coated SPR chip via standard biotin modification. A nonsense DNA was immobilized on the reference channel to identically match the electrostatic conditions of each channel, and then increasing concentrations of target protein LL37 were added such that no regeneration steps are required. The differential response to each dose was extracted and fit to a binding isotherm model to accurately determine Kd.

## ACTGGGTCTCACCATCGAAAATCGAAATGACTAAAAGGCC (ssDNA) [SEQ7 (Apta#222)]
  Kd: 118 nM
